Measurements from US20210347873A1 (SHANGHAI PHARMAEXPLORER, published 2021).
Like-named read-outs stand apart in the source and are kept apart here.

Key:
[1] = target: cynomolgus BLyS (full length, arginine to histidine at position 132) on CHO-K1 cells (cynomolgus); test: flow cytometry, CHO-K1 cynoBLyS cells, antibody 13.3 nM
[2] = target: human BLyS (full length, arginine to histidine at position 132) on CHO-K1 cells (human) (UniProt Q9Y275); test: flow cytometry, CHO-K1 hBLyS cells, antibody 2.67 nM
human BLyS (full length, arginine to histidine at position 132) on CHO-K1 cells (human), sequence (Q9Y275 whole entry R130H, the tested form may be a part): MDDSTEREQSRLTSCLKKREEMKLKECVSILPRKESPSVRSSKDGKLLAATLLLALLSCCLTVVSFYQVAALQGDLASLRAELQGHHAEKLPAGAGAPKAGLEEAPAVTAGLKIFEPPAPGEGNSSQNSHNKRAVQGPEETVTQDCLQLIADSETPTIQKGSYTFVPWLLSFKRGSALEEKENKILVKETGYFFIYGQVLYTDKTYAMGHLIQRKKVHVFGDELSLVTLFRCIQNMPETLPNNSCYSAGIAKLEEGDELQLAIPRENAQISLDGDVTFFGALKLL

[3] = target: human BLyS (full length, arginine to histidine at position 132) on CHO-K1 cells (human) (UniProt Q9Y275); test: flow cytometry, CHO-K1 hBLyS cells, antibody 0.0213 nM
[4] = target: biotinylated hBLyS-ECD (human) (UniProt Q9Y275); test: blocking ELISA: biotinylated hBLyS-ECD on coated BAFF R, antibody 100 nM
biotinylated hBLyS-ECD (human), sequence (Q9Y275 134-285): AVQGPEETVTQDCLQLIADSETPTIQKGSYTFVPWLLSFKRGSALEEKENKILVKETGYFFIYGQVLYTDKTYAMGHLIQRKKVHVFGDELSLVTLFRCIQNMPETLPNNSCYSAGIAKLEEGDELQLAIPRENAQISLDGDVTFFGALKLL

[5] = target: human BLyS (full length, arginine to histidine at position 132) on CHO-K1 cells (human) (UniProt Q9Y275); test: flow cytometry, CHO-K1 hBLyS cells, antibody 0.00427 nM
[6] = target: human BLyS (full length, arginine to histidine at position 132) on CHO-K1 cells (human) (UniProt Q9Y275); test: flow cytometry, CHO-K1 hBLyS cells, antibody 13.3 nM
[7] = target: biotinylated hBLyS-ECD (human) (UniProt Q9Y275); test: ELISA, biotinylated hBLyS-ECD captured on streptavidin; antibody 0.0213 nM
[8] = target: biotinylated hBLyS-ECD (human) (UniProt Q9Y275); test: blocking ELISA: biotinylated hBLyS-ECD on coated BAFF R, antibody 0.16 nM
[9] = target: human BLyS (full length, arginine to histidine at position 132) on CHO-K1 cells (human) (UniProt Q9Y275); test: flow cytometry, CHO-K1 hBLyS cells, antibody 0.107 nM
[10] = target: cynomolgus BLyS (full length, arginine to histidine at position 132) on CHO-K1 cells (cynomolgus); test: flow cytometry, CHO-K1 cynoBLyS cells, antibody 66.7 nM
Target sequence in this assay (Q9Y275 other isoform, or with tags, fused parts or gaps limits assumed): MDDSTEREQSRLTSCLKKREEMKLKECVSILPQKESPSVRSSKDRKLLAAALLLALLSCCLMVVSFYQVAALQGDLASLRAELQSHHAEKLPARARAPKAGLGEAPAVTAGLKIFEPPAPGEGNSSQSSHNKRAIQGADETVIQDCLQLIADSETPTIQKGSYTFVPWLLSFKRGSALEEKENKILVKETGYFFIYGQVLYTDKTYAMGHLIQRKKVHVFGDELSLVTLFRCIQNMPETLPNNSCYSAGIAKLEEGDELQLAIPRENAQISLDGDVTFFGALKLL

[11] = target: biotinylated hBLyS-ECD (human) (UniProt Q9Y275); test: blocking ELISA: biotinylated hBLyS-ECD on coated BAFF R, antibody 0.032 nM
[12] = target: human BLyS (full length, arginine to histidine at position 132) on CHO-K1 cells (human) (UniProt Q9Y275); test: flow cytometry, CHO-K1 hBLyS cells, antibody 66.7 nM
biotinylated hBLyS-ECD [13] = target: T1, biotinylated hBLyS-ECD (human, UniProt Q9Y275 134-285, biotinylated with Biotin-X-X-NHS (molar ratio 7:1); sites not stated); test: ELISA on captured biotinylated hBLyS-ECD; antibody 13.3 nM
T1 construct: also called biotinylated immunogen; biotinylated hBLvS-ECD
T1 sequence (Q9Y275 134-285): as the sequence (Q9Y275 134-285) above

biotinylated hBLyS-ECD [14] = target: T1, biotinylated hBLyS-ECD; test: ELISA on captured biotinylated hBLyS-ECD; antibody 2.67 nM
biotinylated hBLyS-ECD [15] = target: T1, biotinylated hBLyS-ECD; test: ELISA on captured biotinylated hBLyS-ECD; antibody 0 nM (background)
biotinylated hBLyS-ECD [16] = target: T1, biotinylated hBLyS-ECD; test: ELISA on captured biotinylated hBLyS-ECD; antibody 0.00427 nM
[17] = target: T2, extracellular domain of human BLyS protein (hBLyS-ECD), His-tagged, Ala134-Leu285 (human, UniProt Q9Y275 134-285); test: SPR (Biacore), antibody captured by anti-human Fc, hBLyS-ECD as analyte
T2 construct: Expressed in HEK293 cells and purified on a Ni column; also called immunogen
T2 sequence (Q9Y275 134-285): as above
Description: Affinity constants were determined using a Biacore X100 instrument (purchased from GE Healthcare). Detailed operations and methods referred to the instrument manuals and detailed methods provided by manufacturers, specifically: determining affinity constant using a CM5 chip (Sensor Chip CM5, purchased from GE Healthcare). […] Then 1 M ethanolamine was injected in chip to block the remaining activation sites. After the antibody to be tested (i.e., the human BLyS antibody prepared by Embodiment 2) was captured by chip, 7 different gradient of immunogen dilutions (i.e., hBLyS-ECD) prepared by Embodiment 1 were injected and the binding and dissociation of antigen with antibody was detected by a Biacore instrument. The dissociation constant and binding constant were then fitted by Biacore X100 Evaluation Software 2.0, while the affinity constant was the ratio of dissociation constant to binding constant.
The binding and dissociation between antibody and antigen was detected by Biacore.

biotinylated hBLyS-ECD [18] = target: T1, biotinylated hBLyS-ECD; test: BAFF R-coated ELISA, biotinylated hBLyS-ECD bound in presence of antibody 0 nM
biotinylated hBLyS-ECD [19] = target: T1, biotinylated hBLyS-ECD; test: BAFF R-coated ELISA, biotinylated hBLyS-ECD bound in presence of antibody 100 nM
biotinylated hBLyS-ECD [20] = target: T1, biotinylated hBLyS-ECD; test: ELISA on captured biotinylated hBLyS-ECD; antibody 0 nM (background); remark: listed apart in the source
[21] = target: T2, extracellular domain of human BLyS …; test: SPR (Biacore), antibody captured by anti-human Fc, hBLyS-ECD as analyte; remark: listed apart in the source
biotinylated hBLyS-ECD [22] = target: T1, biotinylated hBLyS-ECD; test: ELISA on captured biotinylated hBLyS-ECD; antibody 2.67 nM; remark: listed apart in the source

With mIgG Control (antibody) the MFI [1] was 20.7 MFI, the MFI [2] was 31 MFI and the MFI [3] was 32.7 MFI. The OD450 nm [4] was 1.3 OD450 nm, the MFI [5] was 30.9 MFI and the MFI [6] was 31.7 MFI. For the same molecule, the OD450 nm [7] was 0.0595, the OD450 nm [8] was 1.47 OD450 nm and the MFI [9] was 31.6 MFI. For the same molecule, the MFI [10] was 21.6 MFI, the OD450 nm [11] was 1.45 OD450 nm and the MFI [12] was 33.6 MFI.

hIgG Control (antibody) gave an MFI [1] of 26.7 MFI, an MFI [2] of 33.1 MFI and an MFI [3] of 33.6 MFI. It also gave an OD450 nm [4] of 1.22 OD450 nm, an MFI [5] of 32.3 MFI and an MFI [6] of 35.1 MFI. The OD450 nm [7] was 0.111, the OD450 nm [8] was 1.08 OD450 nm and the MFI [9] was 32.9 MFI. The MFI [10] was 44.2 MFI, the OD450 nm [11] was 1.11 OD450 nm and the MFI [12] was 52 MFI.

B1: c8E7D9C7F5 (antibody, V domains shown)
VH: QVQLQQSGVELARPGASVKLSCKASGYTFTSYGISWVKQRTGQALEWIGEIYPRSGNTYYNEKFKGKATLTADKSSSTAYMELRSLTSEDSAVYFCARSGPITTLVATDYGMDYWGQGTSVTVSS
VL: DIVLTQSPASLAVSLGQRATISCRASKSVSTSSYSYMHWYQQKPGQPPKLLIKFASNLESGVPARFSGSGSGTDFTLNIHPVEEEDAATYYCQHSREFPYTFGGGTKLEIK
notes: also called chimeric antibody c8E7D9C7F5
For B1, the OD450 nm (biotinylated hBLyS-ECD [13]) was 2.37 OD450 nm, the OD450 nm (biotinylated hBLyS-ECD [14]) was 3.24 OD450 nm and the OD450 nm (biotinylated hBLyS-ECD [15]) was 0.0918 OD450 nm. The OD450 nm (biotinylated hBLyS-ECD [16]) was 0.176 OD450 nm, the Kd [17] was 2.94 nM and the koff [17] was 0.000714 s⁻¹. For the same molecule, the kon [17] was 243000 M⁻¹ s⁻¹, the OD450 nm (biotinylated hBLyS-ECD [18]) was 1.95 OD450 nm and the OD450 nm (biotinylated hBLyS-ECD [19]) was 0.53 OD450 nm. The OD450 nm (biotinylated hBLyS-ECD [20]) was 0.322 OD450 nm, the Kd [21] was 2.38 nM and the koff [21] was 0.00109 s⁻¹. It also gave a kon [21] of 456000 M⁻¹ s⁻¹ and an OD450 nm (biotinylated hBLyS-ECD [22]) of 2.21 OD450 nm.

B2: c97A3C2H4 (antibody, V domains shown)
VH: EVKLVESGGGLVQPGGSLKLSCAASGFTFSTYTMSWVRQTPEKRLEWVAYISYGGGSTSYPDTVKGRFTISRDNAKNTLYLQMSSLKSEDTAIYYCTRHVTVVENSMDYWGQGTSVTVSS
VL: DILLTQSPDILSVSPGERVSFSCRASQSIGTSIHWYQQRTNGSPRLLIKYVSESFSGTPSRFSGSGSGTAFTLTINSVESEDIADYYCQQTHSWPWTFGGGTKLEIK
notes: also called chimeric antibody c97A3C2H4
B2 showed an OD450 nm (biotinylated hBLyS-ECD [13]) of 2.34 OD450 nm, an OD450 nm (biotinylated hBLyS-ECD [14]) of 3.32 OD450 nm and an OD450 nm (biotinylated hBLyS-ECD [15]) of 0.122 OD450 nm. It also gave an OD450 nm (biotinylated hBLyS-ECD [16]) of 0.25 OD450 nm, a Kd [17] of 1.49 nM and a koff [17] of 0.000179 s⁻¹. It also gave a kon [17] of 121000 M⁻¹ s⁻¹, an OD450 nm (biotinylated hBLyS-ECD [18]) of 1.91 OD450 nm and an OD450 nm (biotinylated hBLyS-ECD [19]) of 0.474 OD450 nm. It also gave an OD450 nm (biotinylated hBLyS-ECD [20]) of 0.165 OD450 nm, a Kd [21] of 0.446 nM and a koff [21] of 7.34e-05 s⁻¹. It also gave a kon [21] of 165000 M⁻¹ s⁻¹ and an OD450 nm (biotinylated hBLyS-ECD [22]) of 2.25 OD450 nm.
